Consider two molecules from patent US20250376519A1 (JIANGSU HENGRUI PHARMACEUTICALS, published 2025).

Test [1] concerns the target T1, human DLL3 protein (screening antigen) (human, UniProt Q9NYJ7 27-492, limits assumed).
T1 construct: Biotinylated in the phage panning
T1 sequence: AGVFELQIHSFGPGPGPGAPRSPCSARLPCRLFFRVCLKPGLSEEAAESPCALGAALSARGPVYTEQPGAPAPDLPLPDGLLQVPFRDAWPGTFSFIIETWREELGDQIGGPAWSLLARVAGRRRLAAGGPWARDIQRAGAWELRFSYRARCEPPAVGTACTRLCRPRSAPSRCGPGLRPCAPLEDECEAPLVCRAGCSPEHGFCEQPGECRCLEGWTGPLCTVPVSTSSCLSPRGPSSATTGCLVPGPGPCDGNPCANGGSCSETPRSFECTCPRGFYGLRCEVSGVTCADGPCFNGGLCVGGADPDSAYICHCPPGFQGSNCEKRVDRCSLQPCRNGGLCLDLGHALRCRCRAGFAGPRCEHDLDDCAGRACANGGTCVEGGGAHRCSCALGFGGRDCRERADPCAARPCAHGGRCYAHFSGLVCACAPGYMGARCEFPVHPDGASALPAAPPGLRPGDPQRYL
Briefly: ELISA, hybridoma supernatant. The procedure: (§1) Spleen lymphocytes and the myeloma cells, Sp2/0 cells (ATCC® CRL-8287™), were fused by following an optimized electrofusion procedure to obtain hybridoma cells. Based on the growth density of hybridoma cells, the hybridoma culture supernatant was assayed using an ELISA method with binding to DLL3 protein and a FACS method with binding to DLL3 CHO-s cells.

Test [2] deals with T2, monkey DLL3 protein (screening antigen) (cynomolgus monkey, UniProt Q9NYJ7 27-492 (human entry), limits assumed).
T2 chain: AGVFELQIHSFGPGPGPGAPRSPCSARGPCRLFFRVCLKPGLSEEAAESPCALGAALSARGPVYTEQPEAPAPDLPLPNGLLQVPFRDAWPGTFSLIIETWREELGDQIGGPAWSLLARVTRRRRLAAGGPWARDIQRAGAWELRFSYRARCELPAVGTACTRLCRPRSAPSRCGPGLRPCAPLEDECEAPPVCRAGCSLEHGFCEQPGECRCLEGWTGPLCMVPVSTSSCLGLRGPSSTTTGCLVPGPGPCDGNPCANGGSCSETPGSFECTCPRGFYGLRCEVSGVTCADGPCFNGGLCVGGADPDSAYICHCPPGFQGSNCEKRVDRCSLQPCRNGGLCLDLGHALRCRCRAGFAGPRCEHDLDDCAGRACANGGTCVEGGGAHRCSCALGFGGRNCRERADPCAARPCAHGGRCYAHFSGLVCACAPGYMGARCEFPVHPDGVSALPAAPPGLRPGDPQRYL
The test is described as follows: ELISA, hybridoma supernatant. As for the experimental part: as §1
Background: ELISA stands for enzyme-linked immunosorbent assay.

The target in the next test is T3, human DLL3 on cells (human, UniProt Q9NYJ7 27-618).
T3 construct: Endogenous on H1184 and SHP77; Cell line is named under assay; also called H1184; DLL3/H82
T3 sequence: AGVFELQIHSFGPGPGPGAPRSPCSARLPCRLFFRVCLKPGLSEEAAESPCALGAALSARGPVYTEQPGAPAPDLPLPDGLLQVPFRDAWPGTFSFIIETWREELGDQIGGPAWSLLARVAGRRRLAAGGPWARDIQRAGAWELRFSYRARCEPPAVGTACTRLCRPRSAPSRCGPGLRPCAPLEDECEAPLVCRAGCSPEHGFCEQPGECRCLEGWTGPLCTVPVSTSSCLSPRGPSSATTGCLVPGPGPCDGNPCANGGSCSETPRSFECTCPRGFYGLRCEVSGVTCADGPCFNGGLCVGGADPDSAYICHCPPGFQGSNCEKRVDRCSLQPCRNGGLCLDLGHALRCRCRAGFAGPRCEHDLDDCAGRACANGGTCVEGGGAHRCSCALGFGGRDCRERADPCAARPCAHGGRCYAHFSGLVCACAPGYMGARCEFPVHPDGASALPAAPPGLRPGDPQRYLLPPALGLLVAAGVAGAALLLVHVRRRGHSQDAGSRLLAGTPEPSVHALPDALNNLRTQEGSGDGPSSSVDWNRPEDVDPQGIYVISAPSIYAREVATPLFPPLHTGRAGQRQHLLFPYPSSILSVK
The test is described as follows: FACS, DLL3 CHO-s cells, hybridoma supernatant. The procedure: as §1
On the technique in general: Flow cytometry measures light scatter and fluorescence of single cells or particles in a stream.

Test [3] concerns the target T1, human DLL3 protein (screening antigen). Briefly: phage ELISA.
Test [4] addresses T2, monkey DLL3 protein (screening antigen). Briefly: phage ELISA.

B1: mAb110 (antibody, V domains shown)
VH: EVQLQQSGPVLVKPGASVKMSCKTSGYTFTDYYMNWVKQSHGKSLEWIGIINPYNGGTSYTQKFKGKATLTVDKSSSTAYMELNSLTSEDSTVYFCARHFYDSSYLTYSTMDYWGQGTSVTVSS
VL: NIVMTQSPKSMSMSVGERVTLSCKASENVGIFVSWYQQKPKQSPKLLIYGASNRYTGVPDRFTGSGSATDFTLTISSVQAEDLADYYCGQSHSYPLTFGTGTKLELK
notes: murine hybridoma antibody (culture supernatant)
Take B1: the binding result (in test [1]; in test [2]; in the test with human DLL3 on cells) was “binds” each time.

B2: mAb30 (antibody, V domains shown)
VH: EVRLQQFGPVLVKPGASVKMSCKASGYTFTDYYMNWVKQSHGKSLEWIGIINPYNGDTSYNQKFRGKATLTVDKSSSTAYMELNSLTSEDSAVYYCARYHYGPHLEGYFDVWGTGTTLTVSS
VL: DIVMTQSPKSMSMSVGERVTLSCKASENVGYVSWYQQKPEQSPKLLIYGASNRYTGVPDRFTGSGSATDFTLTISSVQAEDLADYHCGQSYSYPLTFGSGTKLEIK
For B2, the binding result in test [3] and in test [4] was “binds” throughout.
